Ends that are not written are not given here. Peptide text beside a SMILES is read from it.
What was measured:
[1] = biological target: T1, ATIC homodimer (Gallus gallus, UniProt P31335); experiment: ATIC RTHS ranking by spotting serial dilutions on selective media; format: cell-based; conditions: cyclic peptides in order of biological activity (1 = most active)
T1 construct: expressed in transfected cells; host or cells: E. coli RTHS strain with the ATIC fusion integrated on the chromosome
T1 sequence (P31335 1-593): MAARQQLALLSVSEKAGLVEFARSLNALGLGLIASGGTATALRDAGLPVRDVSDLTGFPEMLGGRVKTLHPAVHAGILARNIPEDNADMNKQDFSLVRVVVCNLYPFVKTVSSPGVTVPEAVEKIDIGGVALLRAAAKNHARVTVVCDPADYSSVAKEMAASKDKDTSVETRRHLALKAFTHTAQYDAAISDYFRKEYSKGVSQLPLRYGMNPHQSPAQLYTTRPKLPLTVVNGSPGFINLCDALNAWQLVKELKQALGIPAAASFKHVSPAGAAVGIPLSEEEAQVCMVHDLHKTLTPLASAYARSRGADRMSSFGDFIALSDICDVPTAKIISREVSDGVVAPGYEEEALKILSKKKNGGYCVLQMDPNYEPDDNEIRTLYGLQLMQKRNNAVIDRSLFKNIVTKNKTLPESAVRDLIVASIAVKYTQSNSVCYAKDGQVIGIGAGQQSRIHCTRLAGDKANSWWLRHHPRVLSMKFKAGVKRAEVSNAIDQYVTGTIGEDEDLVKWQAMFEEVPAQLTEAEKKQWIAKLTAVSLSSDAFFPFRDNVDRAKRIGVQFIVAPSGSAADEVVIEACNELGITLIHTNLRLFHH
Method: ATIC was cloned as a fusion with the bacteriophage 434 repressor DNA binding domain (into pTHCP16, FIG. 1B) such that expression of the repressor-ATIC fusion placed under control of an isopropyl β-D-thiogalactoside (IPTG) inducible promoter. […] In order to improve selection conditions, a new RTHS strain was constructed by integrating the ATIC fusion onto the chromosome. The level of IPTG giving optimal repression was determined to be 50 μM by β-galactosidase assays.
The first SICLOPPS library transformed into the selection strain encoded a hexapeptide with five random residues and a cysteine nucleophile. Approximately 10^7 transformants were plated onto histidine-free minimal media supplemented with arabinose, (inducer for SICLOPPS) 3-amino-1,2,4-triazole (3-AT, competitive inhibitor of HIS3 product) and kanamycin at a density of 10^6 per plate (100×15 mm). The plates were incubated until colonies were readily visible (approximately one in 10^5). A second library encoding an octapeptide with five random residues and an invariable SGW motif was also tested (not shown). Around 200 colonies were picked and screened for arabinose dependent growth advantage and IPTG dependent inhibition of growth to eliminate false positives. The expected phenotype was further confirmed by isolating and retransforming the selected SICLOPPS plasmids into the selection strain. The 14 remaining cyclic peptides were then ranked for activity by spotting serial dilutions of the corresponding cells onto selective media, allowing the conferred growth advantage to be compared at each dilution level.
SICLOPPS libraries were transformed into E. coli strains containing integrated reporter and repressor constructs. Transformants were washed with minimal media A and plated on minimal media A supplemented with 13 μM L-(+)-arabinose, 2.5 mM 3-amino-1,2,4-triazole, 25 μM kanamycin and 50 μM IPTG. After incubation at 37° C. for 3-4 days, surviving colonies were restreaked onto the same media with and without arabinose. Plasmids from selected strains whose growth depended on the presence of arabinose were retransformed into the original selection strain and checked for phenotype retention. The variable insert regions on SICLOPPS plasmids were PCR-amplified, and their DNA sequence determined.

[2] = biological target: T2, avian ATIC (AICAR Tfase) (Gallus gallus, UniProt P31335); experiment: AICAR Tfase assay
T2 sequence (P31335 1-593): T1 sequence (P31335 1-593)
Method: All assays were performed using a Varian Cary 100 Spectrometer. All reaction mixtures were 500 μl in volume and carried out in 1 cm pathlength quartz cuvettes at 25° C. The enzyme used in all of the inhibition studies was avian ATIC, fused to a N-terminal 6× histidine tag to facilitate purification. […] The peptides were dissolved in DMSO to a final concentration of 2.5 mM.
84 nM of ATIC, 50 μM of 10-f-THF and various quantities of inhibitor were mixed in the assay buffer (32.5 mM Tris-HCl, 25 mM KCl, pH 7.4). The mixture was incubated at 25° C. for 2 min before initiating the reaction by addition of 20 μM AICAR. The reaction was monitored by measuring the increase in absorbance due to formation of tetrahydrofolate at 298 nm.
The peptides were assumed to be competing with f-10-THF, which binds to ATIC and stabilizes its dimerization.

[3] = biological target: T3, ribonucleotide reductase (Mus musculus, UniProt P07742+P11157); experiment: RTHS β-galactosidase (lacZ) assay, ribonucleotide reductase fusion in strain SNS126; format: cell-based, murine; conditions: for Effect on the lacZ reporter upon arabinose induction: arabinose induction of peptide expression; for Effect on the lacZ reporter upon arabinose induction / lacZ repression relief: 100 μM IPTG; for lacZ repression relief: background level of peptide expression
T3 construct: expressed in transfected cells; host or cells: E. coli strain SNS126 (integrated via pAH68)
T3 sequence (P07742 1-792): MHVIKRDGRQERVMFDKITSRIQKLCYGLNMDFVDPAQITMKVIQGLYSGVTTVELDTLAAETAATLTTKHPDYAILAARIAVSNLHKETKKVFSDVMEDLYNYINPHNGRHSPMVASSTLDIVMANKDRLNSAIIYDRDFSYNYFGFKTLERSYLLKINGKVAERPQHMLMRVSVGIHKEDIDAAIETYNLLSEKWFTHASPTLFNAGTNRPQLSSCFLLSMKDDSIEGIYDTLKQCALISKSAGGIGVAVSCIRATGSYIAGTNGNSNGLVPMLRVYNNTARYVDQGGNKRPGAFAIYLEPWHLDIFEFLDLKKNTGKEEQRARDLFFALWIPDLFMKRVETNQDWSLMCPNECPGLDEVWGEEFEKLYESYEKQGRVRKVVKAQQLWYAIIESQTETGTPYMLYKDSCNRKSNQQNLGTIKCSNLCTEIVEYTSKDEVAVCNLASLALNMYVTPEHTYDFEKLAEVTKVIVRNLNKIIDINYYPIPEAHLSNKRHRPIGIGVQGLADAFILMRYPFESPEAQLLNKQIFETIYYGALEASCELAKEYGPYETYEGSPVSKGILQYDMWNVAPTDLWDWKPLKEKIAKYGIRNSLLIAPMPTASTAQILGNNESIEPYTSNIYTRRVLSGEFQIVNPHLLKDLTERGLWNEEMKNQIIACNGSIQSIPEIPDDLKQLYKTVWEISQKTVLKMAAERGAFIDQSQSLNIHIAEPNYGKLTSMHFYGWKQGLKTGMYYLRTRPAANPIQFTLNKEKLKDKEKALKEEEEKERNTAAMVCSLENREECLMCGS
T3 sequence (P11157 1-390): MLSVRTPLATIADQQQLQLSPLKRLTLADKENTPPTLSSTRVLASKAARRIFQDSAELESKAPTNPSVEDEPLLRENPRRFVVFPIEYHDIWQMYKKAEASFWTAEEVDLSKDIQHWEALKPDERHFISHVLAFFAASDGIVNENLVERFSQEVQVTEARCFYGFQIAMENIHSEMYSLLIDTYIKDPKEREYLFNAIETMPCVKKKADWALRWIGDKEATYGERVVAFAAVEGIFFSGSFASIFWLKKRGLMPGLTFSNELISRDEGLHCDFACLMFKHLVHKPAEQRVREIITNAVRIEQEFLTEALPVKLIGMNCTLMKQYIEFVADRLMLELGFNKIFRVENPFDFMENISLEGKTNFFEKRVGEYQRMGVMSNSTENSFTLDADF
Description: FIG. 4 has two graphs (A and B) of β-galactosidase assays showing the effect of linear peptide inhibitors on the oligomeric state of HIV-1 protease and ribonucleotide reductase.
Positive (unrepressed strain) and negative (SICLOPPS control plasmid) controls are provided as reference points. […] FIG. 7C is a graph of competition ELISA results that compare the binding affinity of the four linear peptides with P8 control. FIG. 7D illustrates an exemplary solid phase synthesis of cyclic peptides. First, an activated disulfide resin is prepared through the protection of the thiol group of 3-mercaptopropionic acid, followed by coupling to an amino-PEGA resin. Next, a linear peptide is attached via a cysteine residue and cyclized with 1-ethyl-3-(3′-dimethylaminopropyl)carbodiimide (EDC) and 1-hydroxy-7-azabenzotriazole (HOAt) in DMF. Finally, reductive cleavage with tris-2-carboxyethylphosphine (TCEP) releases the cyclized peptide.
pTHCP30. […] ribonucleotide reductase subunit R1 was PCR amplified from a Bacuolovirus expression plasmid [Caras et al. (1985) J. Biol. Chem. 260:7015-7022] and cloned into SalI and SacI sites on pTHCP14, and subunit R2 was PCR amplified from pET3a-R2 and cloned onto pTHCP14-R1 plasmid at XhoI and KpnI sites [Mann et al. (1991) Biochemistry 30:1939-1947].
Overlapping oligonucleotides encoding […] (methionine plus eight R2 subunit C-terminal residues) (SEQ ID:15) were cloned into NcoI and XbaI sites on arabinose expression plasmid pAR [Perez-Perez et al. (1995) Gene 158:141-142].
Towards this goal, both enzyme complexes were probed with known linear peptidic inhibitors. These peptides are a C-terminal hexapeptide (FIG. 4A, pHIV16) for HIV protease that inhibits the essential β-sheet interactions [Schramm al. (1996) Antiviral Res. 30:155-170], and a heptapeptide for ribonucleotide reductase (pTHCP35, FIG. 4B) that competes with binding between subunits mR1 and mR2 [Yang et al. (1990) FEBS Lett. 272:61-64].
To address non-specific effects of selectants on host growth rates, three of the selective peptides (RR93, RR127, RR130) and the less discriminating RR133 were subjected to quantitative expression studies using the lacZ reporter of the RTHS. […] These studies necessitated in vitro analysis to decipher the inhibition mechanism of these four selectants.

[4] = biological target: T4, ribonucleotide reductase large subunit (mR1) (Mus musculus, UniProt P07742); experiment: Immobilized peptide binding/competition ELISA with mR1; design: species or system murine; conditions: P8 immobilized on maleimide plates
T4 construct: made in house; host or cells: E. coli BL21(λDE3) Rosetta, pET28a-MR1
T4 sequence (P07742 1-792): T3 sequence (P07742 1-792)
Method: (§1) FIG. 8B provides the results of an immobilized P8 ELISA.
(§2) Two variations of solid phase binding assays were used for analyzing the binding of peptide inhibitors to ribonucleotide reductase subunits: i) protein competition ELISA where peptides were competing with mR1 for binding to immobilized mR2, ii) binding and competition ELISA with covalently immobilized ligands. In general, the solid phase assays were performed in microtiter plates (MaxiSorp, Nunc) or strip units (Reacti-Bind™ Maleimide Activated Clear Strip Plates, Pierce) involving continuous agitation in Junior Orbit Shaker (Lab-line Instruments) at medium speed during all of the incubation steps. Sample volumes were 100 μL, unless specified otherwise. Following coating, blocking step was conducted by incubating pre-loaded wells with 5% bovine serum albumin in PBS for 1 h at room temperature. Wash procedures between any two successive incubations involved three washes with 200 μL of 0.5% Tween-20 in PBS (PBST), with the second wash involving a 5 min incubation. Detection of His-tagged proteins was performed with Ni·NTA-HRP conjugate (Qiagen) according to the manufacturer instructions.
(§3) Peptides (200 nmol per well) in 10% DMF/50 mM Tris·HCl (pH 7.5) with 1 mM TCEP were reacted for 2 h at room temperature with maleimide-derivatized polystyrene wells. The unreacted sites were blocked by incubating wells with 5 μM cysteine in 50 mM Tris·HCl (pH 7.5) for 30 min. Following washing and blocking steps, the wells were incubated with His-tagged mR1 or mR2 in the presence or absence of inhibitors. The retained protein was detected via Ni·NTA-HRP conjugate.
(§4) To determine the mechanism of action of the four identified sequences an alternative assay format was devised (FIG. 8A), where a peptide with a residual activity in its immobilized form can serve as a specific ligand for receptor capture in both binding and competition ELISA. The success of such an assay relies on both efficient peptide immobilization strategy and sufficient level of affinity, uncompromised by this display strategy. The peptide immobilization becomes feasible through implementation of a cysteine, a nucleophile used in splicing, as a universal chemoselective handle allowing covalent attachment strategy through a suitable electrophile. Chemoselective attachment of such peptides on appropriately derivatized surfaces should both display the small molecules for detection with a suitable protein receptor and allow binding site competition analysis, not unlike in a traditional immunosorbent format.

[5] = biological target: T5, ribonucleotide reductase small subunit (mR2) (Mus musculus, UniProt P11157); experiment: Immobilized c-RR130 binding/competition ELISA with mR2; design: species or system murine; conditions: data not shown
T5 construct: made in house; host or cells: E. coli BL21(λDE3), pET28a-MR2
T5 sequence (P11157 1-390): T3 sequence (P11157 1-390)
Method: as §1, §2, §3, §4

CSCC[C@@H]1NC(=O)[C@H](Cc2c[nH]c3ccccc23)NC(=O)CNC(=O)[C@H](CO)NC(=O)[C@H](C(C)C)NC(=O)[C@H](CC(N)=O)NC(=O)[C@H](CC(C)C)NC(=O)[C@H](Cc2ccccc2)NC1=O [c-151, M F L N V SGW] (cyclo(WMFLNVSG))
Activity Rank [1]: 1 | Ki [2]: 59 ± 6.8 µM

GVRFF (cyclic, SICLOPPS-expressed; Ribonucleotide reductase inhibitor peptide) [RR127]
Effect on the lacZ reporter upon arabinose induction [3]: further enhanced | lacZ repression relief [3]: observable repression relief | Disruption of / competition with immobilized P8·mR1 complex [4]: none | Competition with the c-RR130·mR2 complex [5]: competed

HRYVF (cyclic, SICLOPPS-expressed; Ribonucleotide reductase inhibitor peptide) [RR133]
Effect on the lacZ reporter upon arabinose induction [3]: further enhanced | lacZ repression relief [3]: observable repression relief | Disruption of / competition with immobilized P8·mR1 complex [4]: none | Competition with the c-RR130·mR2 complex [5]: competed

M L L I V C (MLLIVC) [c-25]
Activity Rank [1]: 3

MSFTLDADF [pTHCP35, reference compound]
Repression of the lacZ reporter ([3]; peptide co-expressed with ribonucleotide reductase fusion): relieved repression

P V L L L C (PVLLLC) [c-26]
Activity Rank [1]: 3

R F F I C C (RFFICC; also: cyclic peptide, ring type not given here) [c-4]
Activity Rank [1]: 2

R I L Q L C (RILQLC) [c-8]
Activity Rank [1]: 2

R I L V L C (RILVLC) [c-5]
Activity Rank [1]: 3

RYFNVC [l-1a, RYFNVC]
Ki [2]: 142 ± 22.5 µM

RYYNV (cyclo(RYYNV); not fully specified) [RR130]
Effect on the lacZ reporter upon arabinose induction [3]: arabinose-dependent repression | lacZ repression relief [3]: observable repression relief | Disruption of / competition with immobilized P8·mR1 complex [4]: none | Competition with the c-RR130·mR2 complex [5]: competed

S M M V L C (SMMVLC) [c-15]
Activity Rank [1]: 3

T V L M F C (TVLMFC) [c-6]
Activity Rank [1]: 3

WMFLNVSG [l-151]
Ki [2]: 173 ± 28.4 µM

YTWSY (cyclo(YTWSY); not fully specified) [RR93]
Effect on the lacZ reporter upon arabinose induction [3]: further enhanced | lacZ repression relief [3]: observable repression relief

Source: US20060078875A1, “Genetic selection of small molecule modulators of protein-protein interactions” (The Penn State Research Foundation, priority 2004, published 2006)
